Test results: the RNAGym collection of RNA variant scans (doi:10.1073/pnas.2313332121)
This sample holds only a part of the variants without activity.

B1: TPR 5TU (parent)
chain: GGAUCUUCUCGAUCUAACAAAAAAGACAAAUCUGCCACAAAGCUUGAGAGCAUCUUCGGAUGCAGAGGCGGCAGCCUUCGGUGGCGCGAUAGCGCCAACGUUCUCAACUAUGACACGCAAAACGCGUGCUCCGUUGAAUGGAGUUUAUCAUG

Variants of: B1
Assay: polymerase ribozyme fitness, log enrichment relative to wild type (log ratio); higher = more active; in vitro selection for triplet polymerase activity
In short: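 Only genotypes with ≥10 input reads and ≥1 read per output were kept after Illumina sequencing of input and output libraries. These libraries were PCR-built, transcribed mutants of each subunit of a heterodimeric triplet polymerase ribozyme, each put through one triplicate in vitro selection round with frozen incubation at −7 °C, gel excision of extended constructs, streptavidin-bead capture and RT-PCR. Fitness is a logarithmic ratio of genotype enrichment to wild-type enrichment, from inverse-variance-weighted replicate averages, with the logarithm in base 2.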

Row | Variant | polymerase ribozyme fitness (log ratio)
1 | G58C A60C G94A G100C C103A | ≤ -4.2
2 | G59A C75G A122U C129A G143U | -3.5
3 | G58C C95U A150C | -3.72
4 | C57U C79A | -4.19
5 | G58U A60C C105G U148G | ≤ -4.2
6 | C57U C87G G88U C95G C116U C123A U134C | ≤ -4.2
7 | C57U C131U | 1.26
8 | U61C G70A | -4.13
9 | G58A C95U | -0.535
10 | C57U A66G | -3.4
11 | G59U C69U G86A C95G A107U | ≤ -4.2
12 | U61A G92C | -3.57
13 | G58C G140C | -4.02
14 | C57G U82C C93A C95U C116U | -3.34
15 | G58A C72U C76G C99G A110C | ≤ -4.2
16 | C57U G80A | -0.314
17 | G58A A73U C96U | -0.178
18 | C57U G59C C93A U135G | ≤ -4.2
19 | G58C G143A | -0.724
20 | G59A A142G | -0.65
21 | U61A A107C C114U G140U | ≤ -4.2

Row | Variant | polymerase ribozyme fitness (log ratio)
22 | G58A C96U | 0.538
23 | U61A C108U | -3.86
24 | U61G A91C C93U C114A G126A U135G | ≤ -4.2
25 | G58A C95U C96G | -1.01
26 | G58A A89G G94A | -1.91
27 | G58U G59U C96G C123A C149U | -3.08
28 | A60C G71C C93G G140A U151C | ≤ -4.2
29 | C57U C79A A110C | ≤ -4.2
30 | G59U G67A G92U | -3.83
31 | G59A G100C | ≤ -4.2
32 | U61G C93U G94A U144G | ≤ -4.2
33 | G58A G86A | -1.63
34 | U61A C95A | -1.41
35 | A60G G83A G133C | -1
36 | A60C C76U A89G C114U G141U | ≤ -4.2
37 | G58A C149A | -3.67
38 | G58A G88C G92A C96A | ≤ -4.2
39 | C57U C75U C123G U144C | -0.394
40 | U61C G67A G68C C79U A98G | ≤ -4.2
41 | G59U G81A C85G A106C | -3.51
42 | G59U A60C G83A C116U C118G | -2.5

Row | Variant | polymerase ribozyme fitness (log ratio)
43 | G59A G83C A89U | -1.39
44 | G58A G143U | -1.82
45 | C57U G81C A106U | -1.74
46 | G58A C87A | ≤ -4.2
47 | G59A C75U C85U U144A | -1.61
48 | A60U U61A G86A C93A A110C G133A | ≤ -4.2
49 | C57U C95A G136A | -0.1
50 | A60U C87U U135C | -3.65
51 | G58C G59A C85U G133C | -1.29
52 | C57U G92A U104C U135C | ≤ -4.2
53 | G59C C93G | -2.98
54 | G59C C93U | -1.11
55 | G58A U101G C132G G133C A142C | -3.72
56 | A60C U101G | -1.58
57 | G59C A73G G86U | -2.26
58 | A60G U61G C76A G124C C125G | ≤ -4.2
59 | U61A C76A C87U | -3.68
60 | U61G C116A | -0.386
61 | G59C G83A C103U A122G | -0.809
62 | U61A G65A G67C G84U C96G G141U | ≤ -4.2
63 | G59U G94A C118U A150G | -1.69

Row | Variant | polymerase ribozyme fitness (log ratio)
64 | G59A A60C U61A G81A C103G | ≤ -4.2
65 | C57U G59U C93U G136U | -2.96
66 | A60C U61A | -2.27
67 | G59A G94U C95A U104C | -2.63
68 | A60C C85U | -1.01
69 | G59U A60G C93U | -3.87
70 | G58C A60G G92A A121U | -2.24
71 | G59A G84A | -2.24
72 | U61G C95G U135C | -4.17
73 | A60G G71A C75A C93U C118G | ≤ -4.2
74 | U61G C76A U78C G88C | ≤ -4.2
75 | A60C U82A G84U U102G G126U | ≤ -4.2
76 | A60U C85G A89U | ≤ -4.2
77 | G58C G83A C93U | -2.03
78 | G58A A147U | 0.692
79 | A60G C72U G124A | 0.612
80 | A60C C96U A142C G143A | ≤ -4.2
81 | A60C C76U C93U | -3.48
82 | A60C G94C A97G A98G U134C | -3.8
83 | C57U C125A | -0.844
84 | G58U A60G | 0.208
